The subject of experiment [1] is recurrent diabetes in NOD/LtJ mice with syngeneic islet transplants. Put plainly: Syngeneic islet transplantation in diabetic NOD mice. In kind it is in vivo, mouse. The settings on record: 300 ug LD + 100 ug qod ip. The source says: Spontaneous autoimmune non-obese diabetic mice (NOD/LtJ) (12-25 weeks old) served as recipients for islet cells, while young pre-diabetic NOD/LtJ mice (6-7 weeks old) served as donors in syngeneic islet transplantation. Islets for transplantation were isolated as described above in Section A (Allogeneic Islet Transplantation).
Diabetic NOD/LtJ mice received islet grafts within 2 days of the diagnosis of diabetes. 500-600 freshly isolated islets (approximately 550 islet equivalents) from donor mice were picked up with an infusion set and transplanted into the subcapular space of the right kidney.
Test compounds were administered as soon as the islets were transplanted and continued for approximately 8 weeks.
Islet graft function was monitored by serial blood glucose measurements daily for the first 2 weeks after islet transplantation, followed by every other day thereafter. Reversal of diabetes was defined as blood glucose less than 200 mg/dl on two consecutive measurements. Percentage graft loss was determined when blood glucose exceeded 250 mg/dl on two consecutive measurements.

Experiment [2] deals with allogeneic rejection of transplanted islet cells. In words: Allogeneic islet transplantation (BALB/c islets in streptozotocin-diabetic B6 mice). The following applies: for day of graft loss, each animal: blood glucose exceeded 250 mg/dl; for day of graft loss, Mean: n 8. Type of experiment: in vivo, mouse. The method, then: C57BL/6J (6-8 week old) (B6) mice were made diabetic by a single intravenous injection of streptozotocin (STZ) (Sigma Chemical Co., St. Louis, Mo.) at 200 mg/kg. BALB/cJ (6-8 week old) (BALB) mice served as donors for islet transplantation, thus providing an allo-mismatch for islet transplants.
Mice (BALB/c) were anesthetized with ketamine HCl/xylazine HCl solution (Sigma, St. Louis Mo.). After intraductal injection of 3 ml of cold Hank's balanced salt solution (HBSS, Gibco, Grand Island N.Y.) containing 1.5 mg/ml of collagenase P (Roche Diagnostics, Branchburg, N.J.), pancreata were surgically procured and digested at 37° C. for 20 mins. Islets were washed with HBSS and purified by discontinuous gradient centrifugation using Polysucrose 400 (Cellgro, Herndon Va.) having four different densities (26%, 23%, 20%, and 11%). The tissue fragments at the interface of the 20% and 23% layers were collected, washed and resuspended in HBSS. Individual islets, free of attached acinar, vascular and ductal tissues were handpicked under an inverted microscope, yielding highly purified islets for transplantation.
Streptozotocin-induced diabetic C57BL/6 (B6) mice received islet grafts within 2 days of the diagnosis of diabetes. BALB/cJ (6-8 week old) (BALB) mice served as donors for allogeneic islet transplantation. For transplantation, 500-600 freshly isolated islets (i.e., approximately 550 islet equivalents) from donor mice were picked up with an infusion set and transplanted into the subcapular space of the right kidney of a recipient.
Test compounds were administered as soon as the islets were transplanted; administration continued for about 60 days, depending upon how the control animal was faring.
Islet graft function was monitored by serial blood glucose measurements daily for the first 2 weeks after islet transplantation, followed by every other day thereafter. Reversal of diabetes was defined as blood a glucose level of less than 200 mg/dl on two consecutive measurements. Graft loss was determined when blood glucose exceeded 250 mg/dl on two consecutive measurements.

Where [3] appears, read: 300 ug + 30 ug qod ip (Group 3).
[4] abbreviates: 300 ug LD + 100 ug qod ip (Group 1).

Several values for one entry are separate records, joined by “and”; a condition that tells them apart may be missing. Equal values may be shown once.

B1: TTP-4000: four domain RAGE fusion protein: human RAGE V and C1 domains with interdomain linkers (to residue 251) fused to human IgG1 CH2 and CH3; SEQ ID NO: 34/56 (protein, listed as Homo sapiens)
chain: QNITARIGEPLVLKCKGAPKKPPQRLEWKLNTGRTEAWKVLSPQGGGPWDSVARVLPNGSLFLPAVGIQDEGIFRCQAMNRNGKETKSNYRVRVYQIPGKPEIVDSASELTAGVPNKVGTCVSEGSYPAGTLSWHLDGKPLVPNEKGVSVKEQTRRHPETGLFTLQSELMVTPARGGDPRPTFSCSFSPGLPRHRALRTAPIQPRVWEPVPLEEVQLVVEPEGGAVAPPSVFLFPPKPKDTLMISRTPEVTCVVVDVSHEDPEVKFNWYVDGVEVHNAKTKPREEQYNSTYRVVSVLTVLHQDWLNGKEYKCKVSNKALPAPIEKTISKAKGQPREPQVYTLPPSRDELTKNQVSLTCLVKGFYPSDIAVEWESNGQPENNYKTTPPVLDSDGSFFLYSKLTVDKSRWQQGNVFSCSVMHEALHNHYTQKSLSLSPGK
In the case of B1, the “day of graft loss, Mean” value is 39.875 days in experiment [1], 11.125 days in experiment [2] (setting [3]) and 14.125 days in experiment [2] (setting [4]). Besides, the “day of graft loss, each animal” value in experiment [1] (blood glucose exceeded 250 mg/dl) is 38 day (2×) and 40 day and 43 day and 36 day and 45 day and 44 day and 35 day; in experiment [2] (setting [3]), 13 day and 14 day and 12 day (2×) and 11 day (2×) and 8 day (2×); in experiment [2] (setting [4]), 14 day (2×) and 16 day (2×) and 13 day (2×) and 12 day and 15 day.

Values taken from patent US20090004190A1, “Rage Fusion Proteins And Methods Of Use” (priority 2006, published 2009).
